Tests used:
[1] = system: iDCs; assay: Cytokine and chemokine production by DCs (MAP/Luminex); type: cell-based, human; conditions: iDCs 48 h with 1 or 10 μg/ml
Experimental: (§1) FIG. 3 (a)-(e). aNK-dependent maturation of HIV-1-infected iDCs is mediated by HMGB1 and involves RAGE. (a) Left panel: iDCs were cultured for 24 h either alone or with aNK cells, in the presence of blocking anti-HMGB1 antibodies (10 μg/ml) or glycyrrhizin (10 μg/ml). The maturation status of DCs was determined by flow cytometry with CD86 and HLA-DR—specific antibodies. Right panel: same experiment, but performed with HIV-1 infected iDCs. Data represent mean±sd of at least three independent experiments, and statistical comparisons were made with the non parametric Mann-Whitney test. * p<0.05. (b) iDC (10^6 cells/ml) were cultured for 48 h with increasing concentrations (1-10 μg/ml) of rh-HMGB1. Cells were then stained with anti-CD86, -HLA-DR, -CD80, -CD83, DC-LAMP and -CD40 antibodies and analyzed by flow cytometry. (c) Influence of rh-HMGB1 on cytokine and chemokine production (determined by MAP) by DCs. iDCs (10^6 cells/ml) were incubated for 48 h in medium or in presence of rh-HMGB1 (1 or 10 μg/ml). As a positive control, iDCs were stimulated with LPS (DC0). […] (e) iDC, DC0, uninfected or HIV-1-infected iDC cocultured for 24 h with aNK cells, were incubated with rh-HMGB1 (1 μg/ml) and subsequently stained with anti-RAGE antibodies and analyzed by flow cytometry. […]

[2] = system: RAGE; assay: Surface expression of RAGE on DCs (flow cytometry); type: cell-based, human; conditions: uninfected iDCs incubated with 1 μg/ml
Experimental: as §1

[3] = system: HIV-2; assay: HIV-2 replication in infected iDCs, p24 ELISA in culture supernatant; type: cell-based; conditions: HIV-2-infected iDC, day 3 of infection
Experimental: FIGS. 6 (a), (b) and (c). Exogenous rh-HMGB1 triggers HIV-1 and HIV-2 replication in iDC. (a) HIV-1-infected iDC were cultured alone or in the presence of aNK cells for 3 days. Rh-HMGB1 (1 μg/ml) was added in some cultures. HIV replication was measured by p24 quantification in culture supernatant (b) HIV1-infected iDC were cultured alone or in the presence of aNK cells for 3 days. Blocking anti-HMGB1 antibodies (10 μg/ml) or glycyrrhizin (10 μg/ml) were added at culture initiation. HIV replication was measured by p24 quantification in culture supernatant. The mean±sd of three independent experiments is shown. Statistical comparisons were made with the non parametric Mann-Whitney test. * p<0.05; (c) HIV-2-infected iDC were cultured alone or in the presence of aNK cells for 3 days. Rh-HMGB1 (1 μg/ml) was added in some cultures. HIV replication was measured by p24 quantification in culture supernatant. […]
2—NK-DC cocultures: cells were harvested, washed three times with RPMI containing 10% FCS and, when indicated, aNK cells were added at a NK:DC ratio of 1:5. […] NK-DC cocultures lasted 3 to 7 days before quantification of viral production in culture supernatants.
3—Quantification of HIV-2 viral production: the concentration of HIV-2 particles in the supernatants was determined with the p24 ELISA kit (Ingen, Belgium).

B1: rh-HMGB1: recombinant human HMGB1 protein (R&D Systems) (protein, UniProt P09429 1-215, looked up)
High mobility group protein B1: MGKGDPKKPRGKMSSYAFFVQTCREEHKKKHPDASVNFSEFSKKCSERWKTMSAKEKGKFEDMAKADKARYEREMKTYIPPKGETKKKFKDPNAPKRPPSAFFLFCSEYRPKIKGEHPGLSIGDVAKKLGEMWNNTAADDKQPYEKKAAKLKEKYEKDIAAYRAKGKPDAAKKGVVKAEKSKKKKEEEEDEEDEEDEEEEEDEEDEDEEEDDDDE
- release of the chemokines MCP1, MIP-1α, MIP-1β and IL-8 [1]: increased release
- RAGE surface expression [2]: down-regulation of RAGE was observed
- HIV-2 viral replication (p24 in supernatant) [3]: slight increase in viral replication

From patent publication US10012655B2, “Method for quantitating total HMGB1 protein in biological samples” (INSTITUT PASTEUR, priority 2008, dated 2018)
